Experimental data from patent publication US20140120109A1 (Regeneron, published 2014).
Where a chain is given by its changes, count along the chain named.

T1: human TL1A, soluble, CHO-expressed, residues 72-251 of SEQ ID NO:244 with N-terminal His6-tag (human, UniProt O95150 72-251)
T1 sequence: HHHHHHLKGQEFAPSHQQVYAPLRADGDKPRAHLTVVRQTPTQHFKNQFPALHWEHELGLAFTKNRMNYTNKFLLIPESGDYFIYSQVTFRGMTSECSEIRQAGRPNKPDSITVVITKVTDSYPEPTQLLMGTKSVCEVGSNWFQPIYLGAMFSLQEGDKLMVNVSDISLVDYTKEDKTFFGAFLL

T2: human TL1A, soluble, E. coli-expressed, residues 72-251 of SEQ ID NO:244 (human, UniProt O95150 72-251)
T2 sequence: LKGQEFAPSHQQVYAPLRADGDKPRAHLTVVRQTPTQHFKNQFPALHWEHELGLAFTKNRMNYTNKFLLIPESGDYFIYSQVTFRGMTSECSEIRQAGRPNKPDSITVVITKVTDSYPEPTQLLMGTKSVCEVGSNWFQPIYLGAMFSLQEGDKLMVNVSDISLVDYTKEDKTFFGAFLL

T3: cynomolgus monkey TL1A, soluble, CHO-expressed, residues 72-251 of SEQ ID NO:248 with N-terminal His6-tag (cynomolgus monkey (Macaca fascicularis), UniProt O95150 72-251 (human entry))
T3 chain: T1 sequence with F45L, I84V

T4: cynomolgus monkey TL1A, soluble, E. coli-expressed, residues 72-251 of SEQ ID NO:248 (cynomolgus monkey (Macaca fascicularis), UniProt O95150 72-251 (human entry))
T4 chain: T2 sequence with F39L, I78V

T5: full-length cynomolgus monkey TL1A expressed on HEK293 cells (cynomolgus monkey (Macaca fascicularis), UniProt O95150 1-251 (human entry))
T5 chain: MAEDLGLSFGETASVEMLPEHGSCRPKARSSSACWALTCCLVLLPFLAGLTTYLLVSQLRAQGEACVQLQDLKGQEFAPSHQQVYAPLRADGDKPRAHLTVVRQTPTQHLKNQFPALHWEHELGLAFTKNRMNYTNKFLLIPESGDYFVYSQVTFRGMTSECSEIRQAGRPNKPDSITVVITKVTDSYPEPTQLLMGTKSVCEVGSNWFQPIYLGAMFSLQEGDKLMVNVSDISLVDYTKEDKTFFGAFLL

B1: H4H1725P (antibody, human IgG4 S228P, V domains shown)
VH: QVQLVQSGAEVKKPGASVKVSCKASGYTFTGYYMHWVRQAPGQGLEWMGWIKPKSGGTNYVQKFQGRVTMTRDTSINTAYMELNNLKSDDTAVYYCATGGSQDASDFWGQGTMVTVSS
VL: DIQMTQSPSSVSASVGGRVTITCRASQDISIWLAWYQQKPGKAPNLLIYAASSLQSGVPSRFSGSGSGTDFTLTISSLQPEDFATYYCQQADSFPLTFGGGTKVEIK
B2: H4H1745P (antibody, human IgG4 S228P, V domains shown)
VH: EVQLVESGGGLVQPGGSLRLSCAASGFTFSSYAMTWVRQAPGKGLEWVSGVSGRGGSTYYADSVKGRFTISRDNSKNTLYLQMNSLRAEDTAVYYCAYWDISSFDYWGQGTLVTVSS
VL: DIQLTQSPSFLSASVGDRVTITCWASQGISTYLAWYQQKPGKTPKLLIYAASTLQSGVPSRFSGSGSGTDFTLTISSLQPEDFATYYCQQFNSYPLTFGGGTKVEIK
B3: H4H1738P (antibody, human IgG4 S228P, V domains shown)
VH: EVQLVESGGALVKPGGSLRLSCAVSGFTFINDWMNWVRQAPGKGLEWVGRIKSTTDGGTTDDAAPVKGRFTISRDDSKNTLYLQMNSLKTEDTAVYYCTRDRNRQRNYFYDGMDVWGQGTTVTVSA
VL: DIVMTQSPVSLPVTPGEPASISCRSSQRLLHNNGNNYLDWYLQKPGQSPQLLIYLGSNRASGVPDRFSGSGSGTDFTLKVSRVEAEDVGVYYCMQALQTPYTFGQGTKLEIK
B4: H4H1742P (antibody, human IgG4 S228P, V domains shown)
VH: EVQLVESGGGLVQPGGSLRLSCAASGFTFSNYVMNWVRQAPGKGLEWVSVISGSGGSTHYADSVKGRFTISRDNSKDALYLQMNSLRAEDTAVYYCAKGPLEAYYYYNGMDVWGQGTTVTVSS
VL: DIQLTQSPSFLSASVGDRVTITCWASQAISSYLAWYQHKPGRAPKLLIYSTSTLQSGVPSRFSGSGSGTEFTLTISSLQPEDFATYYCQQLNSYPTFGQGTKLEIK

target: T1, human TL1A, soluble, CHO-expressed, …; experiment: cell-based or functional assay

IC50, NFkB-luciferase reporter | Binder
0.05 nM | B1
0.09 nM | B2
0.39 nM | B3
0.31 nM | B4

target: T2, human TL1A, soluble, E. coli-expressed, …; experiment: cell-based or functional assay

IC50, NFkB-luciferase reporter | Binder
0.02 nM | B1
0.06 nM | B2
0.16 nM | B3
0.19 nM | B4

Target: T3, cynomolgus monkey TL1A, soluble, …
Experiment: cell-based or functional assay

IC50, NFkB-luciferase reporter | Binder
0.01 nM | B1
0.05 nM | B2
0.39 nM | B3
0.26 nM | B4

Target: T4, cynomolgus monkey TL1A, soluble, E. …
Experiment: cell-based or functional assay

IC50, NFkB-luciferase reporter | Binder
0.02 nM | B1
0.03 nM | B2
0.07 nM | B3
0.07 nM | B4

Target: T5, full-length cynomolgus monkey TL1A …
Experiment: cell-based or functional assay

IC50, reporter + 10,000 TL1A cells | Binder
2.82 nM | B1
4.28 nM | B2
20.2 nM | B3
18.4 nM | B4

target: T1, human TL1A, soluble, CHO-expressed, …; experiment: cell-based or functional assay; remark: another data set of the same source

Average % Blocking IFN-g, 3 ug/ml mAb | Binder
94% | B1
91% | B2
81% | B3
83% | B4

target: T1, human TL1A, soluble, CHO-expressed, …; experiment: ELISA, blocks hTL1A (150 pM) binding hDR3-Fc
Outline: (§1)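 Competition sandwich ELISA: biotinylated CHO-expressed ligand (human TL1A, FHM Q167R variant, or cynomolgus TL1A) at fixed concentration preincubated with titrated antibody 1 h at 25 °C, then 1 h on hDR3-Fc or hDcR3-Fc coated wells. Bound ligand detected by streptavidin-HRP/TMB at 450 nm; sigmoidal dose-response fit.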

IC50 | Binder
0.015 nM | B1
0.018 nM | B2
0.069 nM | B3
0.064 nM | B4

Target: T3, cynomolgus monkey TL1A, soluble, …
Experiment: ELISA, blocks MfTL1A (50 pM) binding hDcR3-Fc
Outline: as §1

IC50 | Binder
0.145 nM | B1
0.118 nM | B2
0.068 nM | B3
0.127 nM | B4
